{
  "source": "IntAct's records for PubMed 29039417",
  "parents": {"B1": {"name": "Protein PTHB1 (Homo sapiens), Q3SYG4 (parent)", "chain": "MSLFKARDWWSTILGDKEEFDQGCLCLANVDNSGNGQDKIIVGSFMGYLRIFSPHPAKTGDGAQAEDLLLEVDLRDPVLQVEVGKFVSGTEMLHLAVLHSRKLCVYSVSGTLGNVEHGNQCQMKLMYEHNLQRTACNMTYGSFGGVKGRDLICIQSMDGMLMVFEQESYAFGRFLPGFLLPGPLAYSSRTDSFLTVSSCQQVESYKYQVLAFATDADKRQETEQQKLGSGKRLVVDWTLNIGEQALDICIVSFNQSASSVFVLGERNFFCLKDNGQIRFMKKLDWSPSCFLPYCSVSEGTINTLIGNHNNMLHIYQDVTLKWATQLPHIPVAVRVGCLHDLKGVIVTLSDDGHLQCSYLGTDPSLFQAPNVQSRELNYDELDVEMKELQKIIKDVNKSQGVWPMTEREDDLNVSVVVSPNFDSVSQATDVEVGTDLVPSVTVKVTLQNRVILQKAKLSVYVQPPLELTCDQFTFEFMTPDLTRTVSFSVYLKRSYTPSELEGNAVVSYSRPTDRNPDGIPRVIQCKFRLPLKLICLPGQPSKTASHKITIDTNKSPVSLLSLFPGFASQSDDDQVNVMGFHFLGGARITVLASKTSQRYRIQSEQFEDLWLITNELILRLQEYFEKQGVKDFACSFSGSIPLQEYFELIDHHFELRINGEKLEELLSERAVQFRAIQRRLLARFKDKTPAPLQHLDTLLDGTYKQVIALADAVEENQGNLFQSFTRLKSATHLVILLIALWQKLSADQVAILEAAFLPLQEDTQELGWEETVDAAISHLLKTCLSKSSKEQALNLNSQLNIPKDTSQLKKHITLLCDRLSKGGRLCLSTDAAAPQTMVMPGGCTTIPESDLEERSVEQDSTELFTNHRHLTAETPRPEVSPLQGVSE", "partner": "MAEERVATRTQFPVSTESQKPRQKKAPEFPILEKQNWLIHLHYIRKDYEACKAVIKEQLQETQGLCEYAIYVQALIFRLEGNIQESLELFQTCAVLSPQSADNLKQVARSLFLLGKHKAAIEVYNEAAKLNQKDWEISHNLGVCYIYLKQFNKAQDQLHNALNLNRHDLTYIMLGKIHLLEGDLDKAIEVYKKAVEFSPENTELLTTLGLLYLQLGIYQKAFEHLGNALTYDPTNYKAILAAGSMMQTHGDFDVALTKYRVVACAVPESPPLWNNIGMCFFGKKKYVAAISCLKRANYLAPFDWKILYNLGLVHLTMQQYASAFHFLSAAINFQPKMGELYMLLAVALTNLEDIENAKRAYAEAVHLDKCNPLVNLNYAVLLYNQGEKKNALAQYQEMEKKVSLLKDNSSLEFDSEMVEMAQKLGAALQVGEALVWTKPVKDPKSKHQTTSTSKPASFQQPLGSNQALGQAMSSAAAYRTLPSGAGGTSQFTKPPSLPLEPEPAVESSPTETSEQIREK"}},
  "data": [
    {"variants_of": "B1", "conditions": "with bbs4_human BBS4, Q96RK4", "values": [
      {"variant": "T512K", "effect of a mutation on the interaction": "with no effect"},
      {"variant": "T813K", "effect of a mutation on the interaction": "with no effect"},
      {"variant": "H652A", "effect of a mutation on the interaction": "with no effect"},
      {"variant": "K786E", "effect of a mutation on the interaction": "with no effect"},
      {"variant": "Y703A", "effect of a mutation on the interaction": "with no effect"},
      {"variant": "Y703K", "effect of a mutation on the interaction": "with no effect"},
      {"variant": "L815A", "effect of a mutation on the interaction": "with no effect"},
      {"variant": "L815K", "effect of a mutation on the interaction": "with no effect"},
      {"variant": "S414K", "effect of a mutation on the interaction": "with no effect"},
      {"variant": "P840A", "effect of a mutation on the interaction": "disrupting interaction strength"},
      {"variant": "G433K", "effect of a mutation on the interaction": "with no effect"},
      {"variant": "K704E", "effect of a mutation on the interaction": "with no effect"},
      {"variant": "T845K", "effect of a mutation on the interaction": "with no effect"},
      {"variant": "F472E", "effect of a mutation on the interaction": "with no effect"},
      {"variant": "L531E", "effect of a mutation on the interaction": "with no effect"},
      {"variant": "L531K", "effect of a mutation on the interaction": "with no effect"},
      {"variant": "I676E", "effect of a mutation on the interaction": "with no effect"},
      {"variant": "V772A", "effect of a mutation on the interaction": "with no effect"},
      {"variant": "S788E", "effect of a mutation on the interaction": "with no effect"},
      {"variant": "Q524K", "effect of a mutation on the interaction": "with no effect"},
      {"variant": "N420E", "effect of a mutation on the interaction": "with no effect"},
      {"variant": "F563E", "effect of a mutation on the interaction": "with no effect"},
      {"variant": "S637A", "effect of a mutation on the interaction": "with no effect"},
      {"variant": "Q748A", "effect of a mutation on the interaction": "disrupting interaction strength"},
      {"variant": "V629K", "effect of a mutation on the interaction": "with no effect"},
      {"variant": "A690V", "effect of a mutation on the interaction": "disrupting interaction strength"},
      {"variant": "V424E", "effect of a mutation on the interaction": "with no effect"},
      {"variant": "G701K", "effect of a mutation on the interaction": "with no effect"},
      {"variant": "G701A", "effect of a mutation on the interaction": "with no effect"},
      {"variant": "L825E", "effect of a mutation on the interaction": "with no effect"},
      {"variant": "A755K", "effect of a mutation on the interaction": "with no effect"},
      {"variant": "T865A", "effect of a mutation on the interaction": "with no effect"},
      {"variant": "R598A", "effect of a mutation on the interaction": "with no effect"},
      {"variant": "R598E", "effect of a mutation on the interaction": "with no effect"},
      {"variant": "L465E", "effect of a mutation on the interaction": "disrupting interaction strength"},
      {"variant": "A775E", "effect of a mutation on the interaction": "with no effect"},
      {"variant": "I657A", "effect of a mutation on the interaction": "with no effect"},
      {"variant": "V749A", "effect of a mutation on the interaction": "with no effect"},
      {"variant": "K542E", "effect of a mutation on the interaction": "with no effect"},
      {"variant": "K685E", "effect of a mutation on the interaction": "disrupting interaction strength"},
      {"variant": "A544K", "effect of a mutation on the interaction": "with no effect"},
      {"variant": "S635K", "effect of a mutation on the interaction": "with no effect"},
      {"variant": "R656E", "effect of a mutation on the interaction": "with no effect"},
      {"variant": "D696N", "effect of a mutation on the interaction": "disrupting interaction strength"},
      {"variant": "L863A", "effect of a mutation on the interaction": "with no effect"},
      {"variant": "N614E", "effect of a mutation on the interaction": "with no effect"},
      {"variant": "P802E", "effect of a mutation on the interaction": "with no effect"},
      {"variant": "V489K", "effect of a mutation on the interaction": "with no effect"},
      {"variant": "A832K", "effect of a mutation on the interaction": "with no effect"},
      {"variant": "S849K", "effect of a mutation on the interaction": "with no effect"},
      {"variant": "L709E", "effect of a mutation on the interaction": "with no effect"},
      {"variant": "R674P", "effect of a mutation on the interaction": "disrupting interaction strength"},
      {"variant": "R674A", "effect of a mutation on the interaction": "disrupting interaction strength"},
      {"variant": "T405K", "effect of a mutation on the interaction": "with no effect"},
      {"variant": "I707K", "effect of a mutation on the interaction": "with no effect"},
      {"variant": "I707A", "effect of a mutation on the interaction": "with no effect"},
      {"variant": "L744E", "effect of a mutation on the interaction": "with no effect"},
      {"variant": "V557A", "effect of a mutation on the interaction": "with no effect"},
      {"variant": "Q705M", "effect of a mutation on the interaction": "disrupting interaction strength"},
      {"variant": "I451E", "effect of a mutation on the interaction": "with no effect"},
      {"variant": "P641K", "effect of a mutation on the interaction": "with no effect"},
      {"variant": "L655E", "effect of a mutation on the interaction": "with no effect"},
      {"variant": "V671A", "effect of a mutation on the interaction": "with no effect"},
      {"variant": "D409K", "effect of a mutation on the interaction": "with no effect"},
      {"variant": "G584K", "effect of a mutation on the interaction": "with no effect"},
      {"variant": "I649K", "effect of a mutation on the interaction": "with no effect"},
      {"variant": "L452K", "effect of a mutation on the interaction": "with no effect"},
      {"variant": "I738K", "effect of a mutation on the interaction": "disrupting interaction strength"},
      {"variant": "G538K", "effect of a mutation on the interaction": "with no effect"},
      {"variant": "S555A", "effect of a mutation on the interaction": "with no effect"},
      {"variant": "T702R", "effect of a mutation on the interaction": "disrupting interaction strength"},
      {"variant": "V417K", "effect of a mutation on the interaction": "with no effect"},
      {"variant": "S723E", "effect of a mutation on the interaction": "with no effect"},
      {"variant": "I640A", "effect of a mutation on the interaction": "with no effect"},
      {"variant": "S541A", "effect of a mutation on the interaction": "with no effect"},
      {"variant": "G884E", "effect of a mutation on the interaction": "with no effect"},
      {"variant": "V450M", "effect of a mutation on the interaction": "disrupting interaction strength"},
      {"variant": "L695E", "effect of a mutation on the interaction": "with no effect"},
      {"variant": "L695K", "effect of a mutation on the interaction": "with no effect"},
      {"variant": "Q672K", "effect of a mutation on the interaction": "with no effect"},
      {"variant": "Q597K", "effect of a mutation on the interaction": "with no effect"},
      {"variant": "D711A", "effect of a mutation on the interaction": "with no effect"},
      {"variant": "K809E", "effect of a mutation on the interaction": "with no effect"},
      {"variant": "P877A", "effect of a mutation on the interaction": "with no effect"},
      {"variant": "H778K", "effect of a mutation on the interaction": "with no effect"},
      {"variant": "F606E", "effect of a mutation on the interaction": "with no effect"},
      {"variant": "E647G", "effect of a mutation on the interaction": "disrupting interaction strength"}
    ]}
  ]
}
